# According to the supplement of paper PMC10567573:
# B1: BTBD10 (parent)
# chain: FVYENAKEGARNIRTSERVTLIVD
# Variants of: B1
# Assay: protein stability index of a GFP-peptide fusion (GPS, HEK-293T) (PSI 1-6); higher = more stable
# Conditions: c terminus: a fixed tail appended
# 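Note: lentivirally expressed fusions sorted by FACS into six bins by GFP to DsRed ratio, PSI derived from sequencing read proportions per bin multiplied by bin number.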
row,Variant,protein stability index
1,FVYENAKEGARNIRTQERVTLIVD [S16Q],2.18
2,FVYENAKEGARNIRTIERVTLIVD [S16I],2.38
3,FVYENAKEGARNIRTPERVTLIVD [S16P],2.33
4,FVYENAKEGARNIRTYERVTLIVD [S16Y],2.44
5,FVYENAKEGARNIRTSERVCLIVD [T20C],2.74
6,FVYENAKEGARNIRTSERVNLIVD [T20N],2.56
7,FVYENAKEGARNIRTSERVVLIVD [T20V],1.38
8,FVYENAKEGARNIRTSERVFLIVD [T20F],2.63
9,FVYENAKEGARNIRTSERVELIVD [T20E],2.06
10,FVYENAKEGARNIRTSERVGLIVD [T20G],1.59
11,FVYENAKEGARNIRTSERVSLIVD [T20S],2.27
12,FVYENAKEGARNIRTSERVMLIVD [T20M],1.82
13,FVYENAKEGARNIRTSERVWLIVD [T20W],3.5
14,FVYENAKEGARNIRTSERVLLIVD [T20L],1.48
15,FVYENAKEGARNIRTSERVHLIVD [T20H],2.06
16,FVYENAKEGARNIRTSERVQLIVD [T20Q],2.18
17,FVYENAKEGARNIRTSERVILIVD [T20I],1.84
18,FVYENAKEGARNIRTSERVYLIVD [T20Y],1.81
19,FVYENAKEGARNIRTSERVRLIVD [T20R],1.81
20,FVYENAKEGARNIRTSERVALIVD [T20A],1.73
21,FVYENAKEGARNIRTSERVDLIVD [T20D],1.92
22,FVYENAKEGARNIRTSERVPLIVD [T20P],3.04
23,FVYENAKEGARNIRTSERVKLIVD [T20K],2.07
24,FVYENAKEGARNIRNSERVTLIVD [T15N],2.11

row,Variant,protein stability index
1,FVYENAKEGARNIRISERVTLIVD [T15I],1.68
2,FVYENAKEGARNIRSSERVTLIVD [T15S],2.38
3,FVYENAKEGARNIRYSERVTLIVD [T15Y],1.39
4,FVYENAKEGARNIRKSERVTLIVD [T15K],2.25
5,FVYENAKEGARNIRFSERVTLIVD [T15F],1.99
6,FVYENAKEGARNIRRSERVTLIVD [T15R],2.06
7,FVYENAKEGARNIRVSERVTLIVD [T15V],1.75
8,FVYENAKEGARNIRMSERVTLIVD [T15M],1.97
9,FVYENAKEGARNIRHSERVTLIVD [T15H],2.15
10,FVYENAKEGARNIRQSERVTLIVD [T15Q],2.68
11,FVYENAKEGARNIRPSERVTLIVD [T15P],1.81
12,FVYENAKEGARNIRGSERVTLIVD [T15G],2.36
13,FVYENAKEGARNIRLSERVTLIVD [T15L],1.47
14,FVYENAKEGARNIRTSERVTLIND [V23N],2.92
15,FVYENAKEGARNIRTSERVTLICD [V23C],2.15
16,FVYENAKEGARNIRTSERVTLILD [V23L],2.07
17,FVYENAKEGARNIRTSERVTLIYD [V23Y],1.7
18,FVYENAKEGARNIRTSERVTLISD [V23S],2.25
19,FVYENAKEGARNIRTSERVTLIGD [V23G],2.11
20,FVYENAKEGARNIRTSERVTLIED [V23E],2.89
21,FVYENAKEGARNIRTSERVTLIRD [V23R],2.68
22,FVYENAKEGARNIRTSERVTLIMD [V23M],2.04
23,FVYENAKEGARNIRTSERVTLIDD [V23D],2.39
24,FVYENAKEGARNIRTSERVTLIFD [V23F],1.99

row,Variant,protein stability index
1,FVYENAKEGARNIRTSERVTLIID [V23I],1.82
2,FVYENAKEGARNIRTSERVTLIWD [V23W],1.4
3,FVYENAKEGARNIRTSERVTLIAD [V23A],2.26
4,FVYENAKEGARNIRTSERVTLIKD [V23K],2.06
5,FVYENAKEGARNIRTSERVTLITD [V23T],2.16
6,FVYENAKEGARNIRTSERVTLIPD [V23P],3.05
7,FVYENAKEGARNIRTSERVTLIQD [V23Q],2.47
8,FVYENAKEGARNIRTSERVTLIHD [V23H],2.26
9,FVYENAKEGARNIRTSERCTLIVD [V19C],2.49
10,FVYENAKEGARNIRTSERYTLIVD [V19Y],2.35
11,FVYENAKEGARNIRTSERPTLIVD [V19P],2.73
12,FVYENAKEGARNIRTSERQTLIVD [V19Q],2.6
13,FVYENAKEGARNIRTSERMTLIVD [V19M],1.62
14,FVYENAKEGARNIRTSERETLIVD [V19E],2.86
15,FVYENAKEGARNIRTSERGTLIVD [V19G],2.21
16,FVYENAKEGARNIRTSERSTLIVD [V19S],2
17,FVYENAKEGARNIRTSERTTLIVD [V19T],2.39
18,FVYENAKEGARNIRTSERFTLIVD [V19F],2.27
19,FVYENAKEGARNIRTSERITLIVD [V19I],1.61
20,FVYENAKEGARNIRTSERKTLIVD [V19K],1.91
21,FVYENAKEGARNIRTSERDTLIVD [V19D],2.48
22,FVYENAKEGARNIRTSERATLIVD [V19A],2.45
23,FVYENAKEGARNIRTSERRTLIVD [V19R],2.34
24,FVYENAKEGARNIRTSERWTLIVD [V19W],1.53

row,Variant,protein stability index
1,FVYENAKEGARNIRTSERLTLIVD [V19L],2
2,FVYENAKEGARNIRTSERNTLIVD [V19N],2.43
3,FVYENAKEGARNIRTSERHTLIVD [V19H],2.35
4,FVYENAKEGARNIRTSEVVTLIVD [R18V],1.69
5,FVYENAKEGARNIRTSEDVTLIVD [R18D],2.61
6,FVYENAKEGARNIRTSECVTLIVD [R18C],1.83
7,FVYENAKEGARNIRTSEYVTLIVD [R18Y],1.44
8,FVYENAKEGARNIRTSEKVTLIVD [R18K],2.1
9,FVYENAKEGARNIRTSENVTLIVD [R18N],2.07
10,FVYENAKEGARNIRTSEAVTLIVD [R18A],1.77
11,FVYENAKEGARNIRTSETVTLIVD [R18T],1.98
12,FVYENAKEGARNIRTSEHVTLIVD [R18H],1.98
13,FVYENAKEGARNIRTSEGVTLIVD [R18G],2.31
14,FVYENAKEGARNIRTSEFVTLIVD [R18F],2.16
15,FVYENAKEGARNIRTSEMVTLIVD [R18M],1.97
16,FVYENAKEGARNIRTSEWVTLIVD [R18W],2.27
17,FVYENAKEGARNIRTSEEVTLIVD [R18E],2.29
18,FVYENAKEGARNIRTSELVTLIVD [R18L],1.83
19,FVYENAKEGARNIRTSEIVTLIVD [R18I],1.66
20,FVYENAKEGARNIRTSESVTLIVD [R18S],1.89
21,FVYENAKEGARNIRTSEQVTLIVD [R18Q],1.79
22,FVYENAKEGARNIRTSEPVTLIVD [R18P],2.31
